# ± gives the uncertainty stated by the source.
# Assay: self-splicing fitness, log relative to wild type (ln ratio); higher = more splicing; Tetrahymena group I intron in knt gene, E. coli kanamycin selection, DiMSum; sequences stand for … in CUCUCU…GGAGGGAAAAGUUAUCAGGCAUGCACCUGGUAGCUAGUCUUUAAACCAAUAGAUUGCAUCGGUUUAAAAGGCAAGACCGUCAAAUUGCGGGAAAGGGGUCAACAGCCGUUCAGUACCAAGUCUCAGGGGAAACUUUGAGAUGGCCUUGCAAAGGGUAUGGUAAUAAGCUGACGGACAUGGUCCUAACCACGCAGCCAAGUCCUAAGUCAACAGAUCUUCUGUUGAUAUGGAUGCAGUUCACAGACUAAAUGUCGGUCGGGGAAGAUGUAUUCUUCUCAUAAGAUAUAGUCGGACCUCUCCUUAAUGGGAGCUAGCGGAUGAAGUGAUGCAACACUGGAGCCGCUGGGAACUAAUUUGUAUGCGAAAGUAUAUUGAUUAGUUUUGGAGUACUCGUGGUCG
# In short: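 The eight P1ex-region nucleotides of an intron in the knt kanamycin-resistance gene on pET-22b(+) were all randomised and the library put into E. coli BL21(DE3). Six replicate transformations were grown overnight at 37°C or 30°C on LB agar with or without 25 μg/mL kanamycin, together with 100 μg/mL carbenicillin, 50 μM IPTG and 0.2% rhamnose. Colonies were pooled and amplicon-sequenced on an Illumina HiSeq 2500. Fitness from DiMSum is the error-weighted combination of wild-type-normalised replicate fold changes, kanamycin over none.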
Sequence,self-splicing fitness (ln) (30 °C),self-splicing fitness (ln) (37 °C)
CGGCAGCAAUAUUACGAGAC,-3.78 ± 0.22,-3.43 ± 0.35
CGGCAGCAAUAUUACGAGUC,-1.86 ± 0.34,-1.76 ± 0.25
CGGCAGCAAUAUUACGCACA,-0.39 ± 0.1,-0.122 ± 0.14
CGGCAGCAAUAUUACGCACU,-1.45 ± 0.086,-0.361 ± 0.1
CGGCAGCAAUAUUACGCGCU,-4.1 ± 0.25,-1.99 ± 0.25
CGGCAGCAAUAUUACGGACC,-2.09 ± 0.26,-1.26 ± 0.2
CGGCAGCAAUAUUACGGAGC,-3.37 ± 0.14,-3.3 ± 0.2
CGGCAGCAAUAUUACGGCAC,-2.58 ± 0.28,-2.21 ± 0.22
CGGCAGCAAUAUUACGGCAG,-0.677 ± 0.095,-0.796 ± 0.11
CGGCAGCAAUAUUACGGCGG,-1.26 ± 0.11,-0.79 ± 0.14
CGGCAGCAAUAUUACGGGGU,-3.58 ± 0.19,-3.28 ± 0.31
CGGCAGCAAUAUUACGGUAU,-3.82 ± 0.19,-3.18 ± 0.22
CGGCAGCAAUAUUACGUAGA,-2.33 ± 0.12,-1.19 ± 0.17
CGGCAGCAAUAUUACGUGCU,-3 ± 0.14,-1.63 ± 0.16
CGGCAGCAAUAUUACGUGUC,-3.89 ± 0.31,-2.6 ± 0.2
CGGCAGCAAUAUUACGUUAC,-3.4 ± 0.2,-3.3 ± 0.33
CGGCAGCAAUAUUACGUUGG,-2.38 ± 0.11,-1.46 ± 0.12
CGGGAGCAAUAUUACGAAUU,-3.16 ± 0.34,–
CGGGAGCAAUAUUACGCCGU,-3.46 ± 0.47,–
CGGGAGCAAUAUUACGCGGC,-2.4 ± 0.43,-1.77 ± 0.3
CGGGAGCAAUAUUACGCUAU,-3.6 ± 0.31,-2.64 ± 0.48
CGGGAGCAAUAUUACGCUGA,-1.34 ± 0.21,-2.14 ± 0.31
CGGGAGCAAUAUUACGCUGU,-2.76 ± 0.33,-2.43 ± 0.34
CGGGAGCAAUAUUACGGAAU,-4.07 ± 0.46,-1.42 ± 0.43
CGGGAGCAAUAUUACGGAGG,-3.27 ± 0.15,-3.12 ± 0.3

Sequence,self-splicing fitness (ln) (30 °C),self-splicing fitness (ln) (37 °C)
CGGGAGCAAUAUUACGGAUC,-3.09 ± 0.43,-2.07 ± 0.42
CGGGAGCAAUAUUACGGCCG,-3.09 ± 0.31,–
CGGGAGCAAUAUUACGGCCU,-3.25 ± 0.31,-2.88 ± 0.44
CGGGAGCAAUAUUACGGCUG,-2.43 ± 0.25,-2.14 ± 0.34
CGGGAGCAAUAUUACGGGCG,-2.44 ± 0.31,-2.67 ± 0.41
CGGGAGCAAUAUUACGGGUA,-2.54 ± 0.21,-1.75 ± 0.2
CGGGAGCAAUAUUACGGUUA,-3.42 ± 0.25,-2.69 ± 0.29
CGGGAGCAAUAUUACGUGGA,-2.06 ± 0.15,-3.14 ± 0.23
CGGGAGCAAUAUUACGUGUU,-5.29 ± 0.38,-2.2 ± 0.25
CGGGAGCAAUAUUACGUUAG,-3.18 ± 0.26,-1.9 ± 0.29
CGGGAGCAAUAUUACGUUCG,-3.74 ± 0.47,-1.75 ± 0.27
CGGGAGCAAUAUUACGUUUG,-2.75 ± 0.17,-2.11 ± 0.19
CGGUAGCAAUAUUACGAACU,-1.3 ± 0.17,-0.755 ± 0.17
CGGUAGCAAUAUUACGAAGU,-2.86 ± 0.3,-1.85 ± 0.25
CGGUAGCAAUAUUACGAUAU,-3.58 ± 0.31,-1.33 ± 0.24
CGGUAGCAAUAUUACGAUGU,-0.932 ± 0.093,-0.763 ± 0.15
CGGUAGCAAUAUUACGCAUU,–,-2.5 ± 0.24
CGGUAGCAAUAUUACGCCUA,-0.535 ± 0.14,-0.215 ± 0.11
CGGUAGCAAUAUUACGCCUG,-1.32 ± 0.13,-0.225 ± 0.11
CGGUAGCAAUAUUACGCGAU,-2.23 ± 0.35,-2.41 ± 0.44
CGGUAGCAAUAUUACGCUCU,-2.71 ± 0.24,-2.43 ± 0.33
CGGUAGCAAUAUUACGGACG,-0.708 ± 0.1,-0.837 ± 0.13
CGGUAGCAAUAUUACGGGGU,-4.08 ± 0.3,-2.81 ± 0.22
CGGUAGCAAUAUUACGGUUU,-3.36 ± 0.16,-1.83 ± 0.15

# From the supplement of paper PMC7877785
